Test results taken from patent publication US20140171373.

Assays:
[1] = molecular target: human wild-type tau (tauWT), full-length, P10636
[2] = molecular target: T1, z-VAD-fmk (benzyloxycarbonyl-Val-Ala-Asp-fluoromethylketone)
T1 chain: VAD

[3] = molecular target: human tauP301L, full-length (from Tg4510 / rTg4510 mouse brain), P10636
Chain of human tauP301L, full-length (from Tg4510 / rTg4510 mouse brain), P10636 (P10636 whole entry, looked up): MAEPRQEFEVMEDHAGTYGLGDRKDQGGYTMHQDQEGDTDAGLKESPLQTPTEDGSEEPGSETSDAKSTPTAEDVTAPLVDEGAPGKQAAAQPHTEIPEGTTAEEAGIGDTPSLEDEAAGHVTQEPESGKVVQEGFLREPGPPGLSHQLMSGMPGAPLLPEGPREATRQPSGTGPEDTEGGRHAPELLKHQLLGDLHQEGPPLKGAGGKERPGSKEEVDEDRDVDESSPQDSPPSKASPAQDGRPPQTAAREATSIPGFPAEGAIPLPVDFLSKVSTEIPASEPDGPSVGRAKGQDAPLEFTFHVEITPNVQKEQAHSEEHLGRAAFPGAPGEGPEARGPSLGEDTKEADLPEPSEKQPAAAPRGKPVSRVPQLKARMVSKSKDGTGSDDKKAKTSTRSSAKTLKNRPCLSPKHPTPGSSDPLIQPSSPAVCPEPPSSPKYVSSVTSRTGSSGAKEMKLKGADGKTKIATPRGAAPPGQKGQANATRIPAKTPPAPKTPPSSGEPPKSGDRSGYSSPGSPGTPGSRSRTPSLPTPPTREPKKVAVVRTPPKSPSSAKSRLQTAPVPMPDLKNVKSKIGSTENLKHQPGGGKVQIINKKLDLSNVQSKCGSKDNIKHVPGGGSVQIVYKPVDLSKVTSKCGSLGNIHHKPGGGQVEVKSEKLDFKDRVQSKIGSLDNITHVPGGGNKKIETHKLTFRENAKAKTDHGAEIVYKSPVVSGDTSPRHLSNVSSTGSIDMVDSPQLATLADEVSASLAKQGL

Chain of human wild-type tau (tauWT), full-length, P10636 (P10636 other isoform, or with tags, fused parts or gaps): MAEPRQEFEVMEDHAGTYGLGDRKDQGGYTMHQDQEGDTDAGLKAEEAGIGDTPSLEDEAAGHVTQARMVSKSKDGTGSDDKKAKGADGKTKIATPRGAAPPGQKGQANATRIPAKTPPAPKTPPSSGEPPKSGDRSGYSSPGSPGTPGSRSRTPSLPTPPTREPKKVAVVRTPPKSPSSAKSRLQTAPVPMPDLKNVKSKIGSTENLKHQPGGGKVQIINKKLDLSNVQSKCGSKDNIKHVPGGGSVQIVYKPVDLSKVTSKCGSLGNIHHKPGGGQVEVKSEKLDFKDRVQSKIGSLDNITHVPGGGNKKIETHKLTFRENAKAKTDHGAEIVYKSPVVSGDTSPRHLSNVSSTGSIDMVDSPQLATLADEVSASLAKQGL
Chain of tauD314E, P10636 (P10636 whole entry, looked up): as the sequence (P10636 whole entry, looked up) above
Chain of tauD314G, P10636 (P10636 whole entry, looked up): as above

B1: caspase-2 (protein)
chain 1: GPVCLQVKPCTPEFYQTHFQLAYRLQSRPRGLALVLSNVHFTGEKELEFRSGGDVDHSTLVTLFKLLGYDVHVLCDQTAQEMQEKLQNFAQLPAHRVTDSCIVALLSHGVEGAIYGVDGKLLQLQEVFQLFDNANCPSLQNKPKMFFIQACRGDET
chain 2: GKNHAGSPGCEESDAGKEKLPKMRLPTRSDMICGYACLKGTAAMRNTKRGSWYIEALAQVFSERACDMHVADMLVKVNALIKDREGYAPGTEFHRCKEMSEYCSTLCRHLYLFPGHPPT
35 kDa fragment after incubation with recombinant caspase-2 (tauD314G, P10636): generated a 35 kDa fragment only in the wild-type tau reaction (tauD314G: none)
35 kDa fragment after incubation with recombinant caspase-2 [1]: generated a 35 kDa fragment only in the wild-type tau reaction that comigrates with tau truncation mutant ΔC314
35 kDa fragment on Tau-13 immunoblot after incubation with the caspase [1]: a 35 kDa fragment generated by co-incubating caspase-2 with full-length tau proteins purified from ... (B) brain lysates of rTg21221 mice expressing human wild-type tau (tauWT) ... or (C) synthetic human tauWT
35 kDa fragment after incubation with recombinant caspase-2 (tauD314E, P10636): generated a 35 kDa fragment only in the wild-type tau reaction (tauD314E: none)
cleavage of tau by the caspase, Tau-13 immunoblot [2]: 50 µM z-VAD-fmk ... (+inhibitor), a general caspase inhibitor, blocked all cleavage
cleavage of the FITC peptide substrate, LabChip [2]: Caspase inhibitor blocks caspase-2-mediated cleavage of Asp314 peptide substrate
35 kDa fragment on Tau-13 immunoblot after incubation with the caspase [3]: a 35 kDa fragment generated by co-incubating caspase-2 with full-length tau proteins purified from (A) brain lysates of Tg4510 mice expressing human tauP301L
